Assay results published in patent publication US20250236667A1, “ANTIBODIES TO MUTANT CALRETICULIN AND USES THEREOF” (CENTRAL ADELAIDE LOCAL HEALTH NETWORK INC, priority 2021, published 2025).

T1: full-length 30 amino acid CALR mutant neoepitope peptide (peptide used for immunisation) (human)
T1 construct: also called full-length peptide
T1 peptide: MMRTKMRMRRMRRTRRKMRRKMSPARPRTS

T2: thrombopoietin receptor (TpoR) (UniProt P40238 26-635, limits assumed)
T2 construct: whole, on cells; It was immunoprecipitated with anti-FLAG beads, so the expressed TpoR evidently carries a FLAG tag; The construct and the position of the tag are not described; also called TPO receptor
T2 sequence (looked up): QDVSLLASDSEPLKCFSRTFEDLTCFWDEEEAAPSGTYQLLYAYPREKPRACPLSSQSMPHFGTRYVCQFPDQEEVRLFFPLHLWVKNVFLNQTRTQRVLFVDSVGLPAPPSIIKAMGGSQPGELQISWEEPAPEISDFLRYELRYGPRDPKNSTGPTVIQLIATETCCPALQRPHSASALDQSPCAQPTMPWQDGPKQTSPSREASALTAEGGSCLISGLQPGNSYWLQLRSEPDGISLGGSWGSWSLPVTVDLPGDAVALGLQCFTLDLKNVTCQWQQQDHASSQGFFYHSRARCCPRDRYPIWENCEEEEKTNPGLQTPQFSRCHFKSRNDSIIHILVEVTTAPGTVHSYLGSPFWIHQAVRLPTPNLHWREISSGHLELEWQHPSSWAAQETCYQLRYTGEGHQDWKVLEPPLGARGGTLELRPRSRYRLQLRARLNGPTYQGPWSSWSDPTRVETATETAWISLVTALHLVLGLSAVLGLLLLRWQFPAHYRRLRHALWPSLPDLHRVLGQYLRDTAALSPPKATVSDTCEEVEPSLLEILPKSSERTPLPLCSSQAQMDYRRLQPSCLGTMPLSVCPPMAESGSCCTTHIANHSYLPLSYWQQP

B1: 2D2 rat monoclonal anti-mutant calreticulin antibody (antibody, V domains shown)
VH: QVQLQQSGAELTKPGSSVKISCKTSGYTFTTYDISWIKQRPGQALEWIGAIYPGGVTTGYNEKFKGKATLTVDKSSNTAFMQLSSLTPEDTAVYYCARWGHTTGTRFDHWGQGVMVTVSS
VL: DVLLTQTPVSLSVSLGDQASISCRSSQSLEYSDGYTYLEWYVQKPGQSPQLLIYEVSDRFSGVPDRFIGSGSGTDFTLKISRVEPEDLGVYYCFQATHDPPTFGGGTKLELK
notes: also called rat anti-human mutCALR 2D2
B2: wild type calreticulin (CALR) (other, human, UniProt P27797 18-417, looked up)
chain: EPAVYFKEQFLDGDGWTSRWIESKHKSDFGKFVLSSGKFYGDEEKDKGLQTSQDARFYALSASFEPFSNKGQTLVVQFTVKHEQNIDCGGGYVKLFPNSLDQTDMHGDSEYNIMFGPDICGPGTKKVHVIFNYKGKNVLINKDIRCKDDEFTHLYTLIVRPDNTYEVKIDNSQVESGSLEDDWDFLPPKKIKDPDASKPEDWDERAKIDDPTDSKPEDWDKPEHIPDPDAKKPEDWDEEMDGEWEPPVIQNPEYKGEWKPRQIDNPDYKGTWIHPEIDNPEYSPDPSIYAYDNFGVLGLDLWQVKSGTIFDNFLITNDEAYAEEFGNETWGVTKAAEKQMKDKQDEEQRLKEEEEDKKRKEEEEAEDKEDDEDKDEDEEDEEDKEEDEEEDVPGQAKDEL
notes: also called CALR^WT; endogenous wild type CALR

Columns and labels:
[1] = tested on: healthy cord blood CD34+ cells; test: cells; type: cell-based, human; details: Homo sapiens, 288 h, 12 days, read-out: inhibition of megakaryocyte formation
Protocol: Umbilical cord blood (UCB) was collected with written consent from full-term deliveries at the Women's Health Unit, Lyell McEwin Hospital (Adelaide, South Australia) or the Department of Obstetrics and Gynecology, Medical University of Graz (Austria) with institutional review board approval (IRB approval: 31-322 ex 18/19; HREC/20/WCHN/65). Samples were processed using a Ficoll-Paque (GE Healthcare) density gradient to isolate mononuclear cells (800×g, room temperature, 30 minutes, deceleration off), followed by red cell lysis (ammonium-chloride-potassium lysing buffer) to remove remaining red blood cells. CD34 enrichment was performed by magnetic cell separation using CD34 Microbead kit (Miltenyi Biotech). Alternatively, purified CD34+ cells from cord-blood were purchased from Lonza. CD34+ cells with a purity above 90% were either cryopreserved or directly cultured in serum-free stem cell retention media (StemSpan SFEMII, Stemcell Technologies, Vancouver, BC, Canada) supplemented with human recombinant SCF, TPO, FLT3, IL-6 (all 20 ng/mL), UM729 (1.75 uM) and StemReginin 1 (SR1, 300 nM). All cytokines and SRI were purchased from PeproTech (Rocky Hill, NJ, USA) whereas UM729 was purchased from Stemcell Technologies.
For megakaryocyte differentiation assays, CD34+ cells derived from cord blood or from patient peripheral blood mononuclear fractions were plated in Megacult (MegaCult™-C Collagen and Medium with Lipids) with added IL-3 and IL-6 (10 ng/ml) in the presence or absence of 50 ng/mL TPO. Cells were plated at an initial density of 1800 cells/well and cultured for 12 days at 37° C. and 5% CO2. […] Culture media was replenished every 3 days and cells were assessed for megakaryocyte differentiation on day 12 using anti-human CD41/61 PE-Cy7 (Clone A2A9/6) and CountBright beads (Thermo Fisher) to enumerate cell numbers. […] Cells were seeded at approximately 100 cells per well and were cultured in the presence of 20 μg/mL 4D7 or control IgG antibody and scored for colony and blast forming units at 12-14 days.

[2] = tested on: TF-1 TpoR CALR^del61 cells; test: Cell proliferation, trypan blue exclusion; type: cell-based, human; details: 5 or 20 μg/mL; FIG. 8
Protocol: […] Cells were seeded in triplicate and each well was counted in triplicate every 24 hours for 5 days using trypan blue exclusion.

[3] = tested on: 30 amino acid peptide corresponding to the C-terminal mutant CALR neoepitope sequence; test: ELISA binding to peptide; design: species or system human
Protocol: (§1) Rats were immunised with a CALR mutant peptide “MMRTKMRMRRMRRT RRKMRRKMSPARPRTS” coupled to KLH, this peptide sequence is unique to CALR mutant. Serum from the immunised rats was screened by enzyme linked immunoassay, to verify a strong titre to the peptide immunogen, prior to performing the hybridoma fusion. Immunised rat spleen cells were harvested and a spleen single cell suspension was combined with Sp2/O myeloma cell line. The cell mixture was treated with polyethylene glycol plus DMEM prior to been plated in 96 well flat bottom plates. The expanding hybridomas were screened initially by ELISA and the positive clones were further verified by western blot, for reactivity to the expressed CALR mutant protein before subcloning the hybridomas for antibody production.

[4] = molecular target: T1, full-length 30 amino acid CALR mutant …; test: ELISA on peptide
[5] = molecular target: B2; test: Western blot of TF-1 cell extracts (hybridoma clone screen)
Protocol: B. Replicate Scatchard analyses of 4D7 using I¹²⁵-labelled and unlabelled 4D7 bound to full-length peptide (n=3). C. […] Cells were cultured in the presence or absence of 10 ng/ml TPO (n=3). D. Paracrine CALR-mutant protein is not sufficient to maintain TPO sensitive cells in culture. TF1 TpoR and TF-1 TpoR CALR^del61 cells were seeded at the same density and cultured in the presence or absence of TPO. Cells were separated by semi-permeable membrane in a horizontal co-culture system. Cell populations on either side of the membrane were counted every 24 hours over 4 days in triplicate and representative images were taken on day 4. Exogenous CALR secreted by TF-1 TpoR CALR^del61 was unable to assist growth of factor dependent TF-1 TopR cells (n=3). E. Histogram overlays showing fluorescence intensity of unstained and PE conjugated IgG2a isotype control in TF-1, TF-1 TpoR and TF-1 TpoR CALR^del61 compared to 4D7 conjugated to PE.
(§2) For immunoblotting of total lysates, cells were lysed in NP40 buffer containing 150 mM NaCl, 50 mM Tris pH 7.6, 1% NP-40, supplemented with protease inhibitors (Complete, Roche) and phosphatase inhibitor cocktails, and boiled for 5 minutes after addition of sample buffer (60 mM Tris pH 6.8, 5% glycerol, 1% SDS, 2% β-mercaptoethanol, 0.02% bromophenol blue) before SDS gel electrophoresis followed by Western blotting (Tvorogov et al, 2010). […]

mutant CALR protein = test: Western blot detection of mutant CALR by hybridoma clones; type: binding, human; details: cell extracts from TF-1 cells transduced with and without mutant CALR; data not shown
Protocol: as §1
For immunoblotting of total lysates, cells were lysed in NP40 buffer containing 150 mM NaCl, 50 mM Tris pH 7.6, 1% NP-40, supplemented with protease inhibitors (Complete, Roche) and phosphatase inhibitor cocktails, and boiled for 5 minutes after addition of sample buffer (60 mM Tris pH 6.8, 5% glycerol, 1% SDS, 2% β-mercaptoethanol, 0.02% bromophenol blue) before SDS gel electrophoresis followed by Western blotting (Tvorogov et al, 2010). Primary antibodies against pERK (#9101), pSTAT5 (#9359), ERK (#4695), Actin (#4970), Caspase 3 (#14220), wildtype CALR (#12238) were purchased from Cell Signalling. Primary antibodies against pSTATI (#612233), pSTAT3 (#612357), STATI (#610186), STAT3 (#610190), STAT5 (#610192) and Anti-phosphotyrosine 4G10 (#610012) were purchased from BD Biosciences. Mutant CALR monoclonal antibody CAL2 was purchased from Dianova (Hamburg, Germany). Immunopreciptation of TpoR was performed in standard NP40 lysis buffer with additional 50 mM iodoacetamide to avoid any de novo disulfide bond formation post lysis. To reduce IgG background during immunoprecipitation anti-FLAG conjugated to magnetic beads (Sigma, #M8823) were used. For this same reason, anti-FLAG-HRP conjugated antibodies (Sigma, #A8592) were used in western blotting.

[6] = molecular target: T2, thrombopoietin receptor (TpoR); test: co-immunoprecipitation with anti-FLAG (MPL/TpoR), reducing Western blot
Protocol: B. Similar experiment using TPO-independent TF-1 TpoR CALR^del61 cells at 4 and 8 hours. C. Similar experiment shown using TPO-independent TF-1 TpoR CALR^del52 cells, 8 hours. D. Flow cytometry analysis for cell cycle distribution of TF-1 TpoR CALR^del61 cells exposed to 20 μg/mL IgG or 4D7 for 48 hours. Cells were harvested and fixed and stained with propidium iodide and their DNA contents were analysed. Results from one representative experiment shown. Percentages of cells in Sub Go, G1. S and G2/M cycle indicated. E. Western blot showing specific co-immunoprecipitation of mutant CALR^del61 cells with TpoR anti-FLAG antibody under reducing conditions detected by total and mutant specific CALR antibodies. Arrowheads represent detected CALR protein. F. Western blot showing decreased TpoR phosphorylation in a TpoR immunoprecipitated after 8 hours of 20 μg/mL 4D7 treatment compared to PBS or IgG control in TF-1 TpoR CALR^del61.
as §2

Molecule: N#CC[C@H](C1CCCC1)n1cc(-c2ncnc3[nH]ccc23)cn1 [ruxolitinib]
inhibition at 0.05 µM ([1]; 50 nM, P=0.008): > 30%
inhibition at 0.1 µM ([1]; 100 nM, P=0.07): > 30%

Molecule: B1
proliferation of cytokine-independent TF1 TpoR/mutCALR cells [2]: inhibit proliferation
binding to peptide by ELISA [3]: positive binding
binding result [4]: binds
binding result [5]: no binding
detecting mutant but not wild type CALR protein by Western blotting (mutant CALR protein): superior activity

Molecule: B2
binding result [6]: no binding
